Results as given in patent US20140155466.

Experiments:
Experiment in all cases: cell_activity
[1] = tested on: Human autoantibodies against muscarinic M2 receptor (M2-receptor AAB) (Homo sapiens); conditions: -3.67 without aptamer, 100 nM
[2] = tested on: Human autoantibodies against beta2-adrenergic receptor (beta2-receptor AAB) (Homo sapiens); conditions: 100 nM
[3] = tested on: Human autoantibodies against endothelin receptor type A (ETA-AAB) (Homo sapiens); conditions: pulmonary hypertension patient 2, -4.8 without aptamer
[4] = tested on: Human autoantibodies against beta1-adrenergic receptor (beta1-receptor AAB, 2nd loop) (Homo sapiens)
[5] = tested on: Human autoantibodies against alpha1-adrenergic receptor (alpha1-receptor AAB) (Homo sapiens); conditions: pulmonary hypertension patient 2, 5.17 without aptamer; 100 nM
[6] = tested on: Human autoantibodies against beta1-adrenergic receptor (beta1-receptor AAB, 1st loop) (Homo sapiens); conditions: DCM patient 1, 6.33 without aptamer; 100 nM
[7] = tested on: Human alpha1/beta2-receptor autoantibodies (Alzheimer patient) (Homo sapiens); conditions: Alzheimer patient 1, 8.0 without aptamer; 100 nM
[8] = tested on: Human autoantibodies against angiotensin II AT1 receptor (AT1-receptor AAB) (Homo sapiens); conditions: malignant hypertension, 7.83 without aptamer; kidney transplant 6.17 to 0.17; 100 nM
[9] = tested on: Human autoantibodies against PAR receptor (PAR-receptor AAB) (Homo sapiens); conditions: Raynaud patient 1, 7.33 without aptamer; 100 nM

“CGCCTAGGTTGGGTAGGGTGGTGGCG [NU172 (ARC2172)]” showed an activity (delta beats/15 sec) ([1]; sign as printed) of 3, an activity (delta beats/15 sec) ([2]; glaucoma patient 1, 7.33 without aptamer, Chagas megacolon patient 6.17 to 2.0) of 5.33 and an activity (delta beats/15 sec) ([3]; sign as printed) of 2. It also gave an activity (delta beats/15 sec) ([4]; peripartum cardiomyopathy, 6.33 without aptamer, 100 nM, partial) of 4 and an activity (delta beats/15 sec) [5] of 2.
“GGTTGGTGTGGTTGG [3'-dT cap thrombin-aptamer]” showed an activity (delta beats/15 sec) ([2]; 3'-dT cap, Alzheimer, 5.17 without aptamer) of 0 and an activity (delta beats/15 sec) ([4]; 3'-dT cap, DCM, 6.0 without aptamer, 100 nM) of 0.
“GGTTGGTGTGGTTGG [5'-FITC-thrombin-aptamer]” was tested, and the activity (% neutralization) ([4]; loop not stated, 100 nM FITC-aptamer) was 50.
“GGTTGGTGTGGTTGG [thrombin-aptamer ARC183]” showed an activity (delta beats/15 sec) [6] of -0.17, an activity (delta beats/15 sec) [7] of 0 and an activity (delta beats/15 sec) [8] of 0.67. It also gave an activity (delta beats/15 sec) ([1]; Chagas cardiomyopathy) of 0.5, an activity (delta beats/15 sec) ([2]; glaucoma patient 1, 7.33 without aptamer) of 0.33 and an activity (delta beats/15 sec) [9] of 0.17. For the same sequence, the activity (delta beats/15 sec) ([3]; 100 nM) was 0.33, the activity (delta beats/15 sec) ([4]; DCM patient 1, 5.33 without aptamer, 100 nM aptamer, rat cardiomyocyte bioassay) was 0.17 and the activity (delta beats/15 sec) [5] was 0.33.
